{
  "source": "paper doi:10.1101/197186",
  "about": "(bioRxiv, 2017)",
  "molecular_target": "the molecule itself",
  "test": "SEC",
  "data": [
    {"protein": "human MORC2(1-603) S87L (domain or fragment) MAFTNYSSLNRAQLTFEYLHTNSTTHEFLFGALAELVDNARDADATRIDIYAERREDLRGGFMLCFLDDGAGMDPSDAASVIQFGKLAKRTPESTQIGQYGNGLKSGSMRIGKDFILFTKKEDTMTCLFLSRTFHEEEGIDEVIVPLPTWNARTREPVTDNVEKFAIETELIYKYSPFRTEEEVMTQFMKIPGDSGTLVIIFNLKLMDNGEPELDIISNPRDIQMAETSPEGTKPERRSFRAYAAVLYIDPRMRIFIHGHKVQTKRLSCCLYKPRMYKYTSSRFKTRAEQEVKKAEHVARIAEEKAREAESKARTLEVRLGGDLTRDSRVMLRQVQNRAITLRREADVKKRIKEAKQRALKEPKELNFVFGVNIEHRDLDGMFIYNCSRLIKMYEKVGPQLEGGMACGGVVGVVDVPYLVLEPTHNKQDFADAKEYRHLLRAMGEHLAQYWKDIAIAQRGIIKFWDEFGYLSANWNQPPSSELRYKRRRAMEIPTTIQCDLCLKWRTLPFQLSSVEKDYPDTWVCSMNPDPEQDRCEASEQKQKVPLGTFRKDMKTQEEKQKQLTEKIRQQQEKLEALQKTTPIRSQADLKKLPLEVTTRPST", "values": [
      {"measurement": "stoichiometry N", "result": 2}
    ]}
  ]
}
